B1: CyPPO19 R89A + V165S + V305M + F360M: variant of CyPPO19 PPO protein (SEQ ID NO: 1) (protein)
chain: MSEVDVAIVGGGLSGLSLAWRLQQSAPQYSVVLLEASDRLGGNITTQTAEGFVWELGPNSFAPTPALLQLIAEVGLQSELIRGDRHLPAYIYWRGQLYPLQPTRPLALATSNLLSPWGKVRAALGALGFVPPYLGSGDESVNSFFRRHLGQEVAERLVAPFVSGSYAGDPQQLSAAAAFRRIAQLEKLGGGLIAGALHLRRQQAPKPKPPTSVQMRPGELGSFKEGLAALPRAIAQQLKAPIHLQTPVQEITPDPKGGYLLRSGEQTWRARSVVLATPAYQTAELVAPFQPAIARVLATIPYPTMACVVLAYPAGLGRSVRPGFGVLIPRSQGIRTLGTIWSSCLFPQRTPAGWQVFTSMIGGATDPDLASLSEEAIVQQVQQDLNRLLDLPAAKARLLGMKVWRRAIPQYMVGYPEQWQQVTHALSQTPGLFLCSNYAEGVALGDRVEHGNRTAAAVAAYLSGGQP
modifications: Synthetic_PPO of Thermosynechococcus elongatus PKUAC-SCTE542 (comprising GenBank No. CP032152.1)
B2: CyPPO19 R89A + V165C + L327T + F360V: variant of CyPPO19 PPO protein (SEQ ID NO: 1) (protein)
chain: B1 chain with S165C, M305V, L327T, M360V
modifications: Synthetic_PPO of Thermosynechococcus elongatus PKUAC-SCTE542 (comprising GenBank No. CP032152.1)
B3: CyPPO19 V165C + F360L: variant of CyPPO19 PPO protein (SEQ ID NO: 1) (protein)
chain: B1 chain with A89R, S165C, M305V, M360L
modifications: Synthetic_PPO of Thermosynechococcus elongatus PKUAC-SCTE542 (comprising GenBank No. CP032152.1)
B4: CyPPO19 R89A + A167L + L327T + F360I: variant of CyPPO19 PPO protein (SEQ ID NO: 1) (protein)
chain: B1 chain with S165V, A167L, M305V, L327T, M360I
modifications: Synthetic_PPO of Thermosynechococcus elongatus PKUAC-SCTE542 (comprising GenBank No. CP032152.1)
B5: CyPPO19 R89A + V165S + I408R + F360L: variant of CyPPO19 PPO protein (SEQ ID NO: 1) (protein)
chain: B1 chain with M305V, M360L, I408R
modifications: Synthetic_PPO of Thermosynechococcus elongatus PKUAC-SCTE542 (comprising GenBank No. CP032152.1)
B6: CyPPO19 R89A + A167L + V305L + F360T: variant of CyPPO19 PPO protein (SEQ ID NO: 1) (protein)
chain: B1 chain with S165V, A167L, M305L, M360T
modifications: Synthetic_PPO of Thermosynechococcus elongatus PKUAC-SCTE542 (comprising GenBank No. CP032152.1)

Results on 6 molecules are retold here after US12698507B2, “Methods and compositions for conferring and/or enhancing herbicide tolerance using protoporphyrinogen IX oxidase of various cyanobacteria or variant thereof” (FarmHannong Co., Ltd., priority 2019, dated 2026).

Where a chain is given by its changes, count along the chain named. Names may count otherwise.

This test concerns PPO-deficient BT3 E. coli (ΔPPO). Kind of test: PPO-inhibiting herbicide tolerance test of PPO variants in E. coli (growth on herbicide-containing LB agar). The settings on record: CyPPO19 variants in BT3 (ΔPPO) E. coli; LB agar with 0 to 2,000 μM herbicide, 37° C., dark, 16-20 hours. The class given is cell-based. A digest of the protocol: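 Tolerance was scored against wild-type enzyme: '−' for equal growth, one '+' per 10-fold gain, up to '+++++'. ΔPPO BT3 cells carrying variant plasmids, spotted as a 10-fold dilution series from OD600=0.5, grew 16-20 h at 37° C. in the dark on ampicillin LB agar containing 0 to 2,000 μM herbicide.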
In the case of B1, the “tolerance level relative to wild type, Carfentrazone” value is “+ (‘+’ per each 10-fold resistance)”; the “tolerance level relative to wild type, Flumioxazin” value is given as “+++++ (until ‘+++++’ as maximal resistance)”; the “tolerance level relative to wild type, Fomesafen” value was “+++ (‘+’ per each 10-fold resistance)”; the “tolerance level relative to wild type, Oxyfluorfen” value is recorded as “++ (‘+’ per each 10-fold resistance)”. Moreover, the “tolerance level relative to wild type, Saflufenacil” value was “+++++ (until ‘+++++’ as maximal resistance)”; the “tolerance level relative to wild type, Sulfentrazone” value is on record as “+++ (‘+’ per each 10-fold resistance)”; the “tolerance level relative to wild type, Tiafenacil” value is “+++++ (until ‘+++++’ as maximal resistance)”.
For B2, the “tolerance level relative to wild type, Carfentrazone” value is reported as “+ (‘+’ per each 10-fold resistance)”; the “tolerance level relative to wild type, Flumioxazin” value is “++++ (‘+’ per each 10-fold resistance)”; the “tolerance level relative to wild type, Fomesafen” value is “+ (‘+’ per each 10-fold resistance)”; the “tolerance level relative to wild type, Oxyfluorfen” value was “+ (‘+’ per each 10-fold resistance)”. For the same molecule, the “tolerance level relative to wild type, Saflufenacil” value was “+++ (‘+’ per each 10-fold resistance)”; the “tolerance level relative to wild type, Sulfentrazone” value was “++ (‘+’ per each 10-fold resistance)”; the “tolerance level relative to wild type, Tiafenacil” value is listed as “+++ (‘+’ per each 10-fold resistance)”.
For the molecule B3, the “tolerance level relative to wild type, Carfentrazone” value is on record as “+ (‘+’ per each 10-fold resistance)”; the “tolerance level relative to wild type, Flumioxazin” value is listed as “++++ (‘+’ per each 10-fold resistance)”; the “tolerance level relative to wild type, Fomesafen” value was “+++ (‘+’ per each 10-fold resistance)”; the “tolerance level relative to wild type, Oxyfluorfen” value is reported as “++ (‘+’ per each 10-fold resistance)”. For the same molecule, the “tolerance level relative to wild type, Saflufenacil” value is given as “++++ (‘+’ per each 10-fold resistance)”; the “tolerance level relative to wild type, Sulfentrazone” value is “++++ (‘+’ per each 10-fold resistance)”; the “tolerance level relative to wild type, Tiafenacil” value was “++++ (‘+’ per each 10-fold resistance)”.
Turning to B4, the “tolerance level relative to wild type, Carfentrazone” value is “++ (‘+’ per each 10-fold resistance)”; the “tolerance level relative to wild type, Flumioxazin” value is listed as “++++ (‘+’ per each 10-fold resistance)”; the “tolerance level relative to wild type, Fomesafen” value is reported as “+++ (‘+’ per each 10-fold resistance)”; the “tolerance level relative to wild type, Oxyfluorfen” value is “+++++ (until ‘+++++’ as maximal resistance)”. The “tolerance level relative to wild type, Saflufenacil” value was “++++ (‘+’ per each 10-fold resistance)”; the “tolerance level relative to wild type, Sulfentrazone” value is “++++ (‘+’ per each 10-fold resistance)”; the “tolerance level relative to wild type, Tiafenacil” value is recorded as “++++ (‘+’ per each 10-fold resistance)”.
For B5, the “tolerance level relative to wild type, Carfentrazone” value is “+ (‘+’ per each 10-fold resistance)”; the “tolerance level relative to wild type, Flumioxazin” value is recorded as “++++ (‘+’ per each 10-fold resistance)”; the “tolerance level relative to wild type, Fomesafen” value was “++ (‘+’ per each 10-fold resistance)”; the “tolerance level relative to wild type, Oxyfluorfen” value is reported as “++ (‘+’ per each 10-fold resistance)”. Besides, the “tolerance level relative to wild type, Saflufenacil” value is “++++ (‘+’ per each 10-fold resistance)”; the “tolerance level relative to wild type, Sulfentrazone” value is on record as “+++ (‘+’ per each 10-fold resistance)”; the “tolerance level relative to wild type, Tiafenacil” value is “++++ (‘+’ per each 10-fold resistance)”.
For B6, the “tolerance level relative to wild type, Carfentrazone” value was “+ (‘+’ per each 10-fold resistance)”; the “tolerance level relative to wild type, Flumioxazin” value is “++ (‘+’ per each 10-fold resistance)”; the “tolerance level relative to wild type, Fomesafen” value is listed as “++ (‘+’ per each 10-fold resistance)”; the “tolerance level relative to wild type, Oxyfluorfen” value is listed as “++ (‘+’ per each 10-fold resistance)”. In addition, the “tolerance level relative to wild type, Saflufenacil” value is listed as “+++ (‘+’ per each 10-fold resistance)”; the “tolerance level relative to wild type, Sulfentrazone” value is “++ (‘+’ per each 10-fold resistance)”; the “tolerance level relative to wild type, Tiafenacil” value is on record as “+++ (‘+’ per each 10-fold resistance)”.
